Target: His-tagged full-length Anisakis simplex macrophage migration inhibitory factor (As-MIF, 1-121) (Anisakis simplex)
Assay: SPR

His-tagged human JAB1 (1-257) (from UniProt Q92905 1-257) (domain or fragment)
Kd: 16.6 nM

Source: publication PMC5458677
